# Assay results published in article PMC6018538, “The CYP71AZ P450 Subfamily: A Driving Factor for the Diversification of Coumarin Biosynthesis in Apiaceous Plants” (Frontiers in Plant Science, 2018).
# B1: CYP71AZ3 (Pastinaca sativa) (protein)
# chain: MEPVFLFLILAFPIASVYLLFYHKKRVVGLSAPPGPPGLPFIGNFHQLYKASSTHEYLWSLSKQYGSLVTLRMGSVPILVVSSPKMAKEVLQTQDLIYCSRPAMTGMQKLSYNGLDVAFSPYTDQWRHTRKFCTLELFTQKRAQLNFRPVREQEVSRMIARLSETAAASKDVNAYEWFSNLATCIISRVAFGKRYDEDGIGKERFQRMLSEIDAMFIGFFVSDFFPMFGWIDKLSGMRDRLDRTFKDLDMFYQELIDEHLKPNRLESPTEDLIDVMLKNEGSSLTKDSMKAILLNVFNGGTGTTATVLAWAMTALLRNQGVMKKAQEEIRSVIGKKGKVDEDDFPSLPYLRAVVKETMRLYPPAPVLVPRETMESSIIGEDKDHMYMVKPKTVVYISMWAIGRDPKTWKNPMEFVPERFLERPDINYKGQQFEYVPFGAGRRICAGINLGVTTVELALANLLYTFDWEPPAGMRFEDIDDETTNGLALQKKNALYIRPKKYMFP
# Key:
# COc1ccc2cc(C)c(=O)oc2c1 = assay: cells, lysate or membranes; conditions: NADPH; product 8-hydroxy-3-methyl-7-methoxycoumarin
# COc1cc2ccc(=O)oc2cc1O = assay: cells, lysate or membranes; conditions: NADPH; product fraxetin
# COc1ccc2ccc(=O)oc2c1 = assay: cells, lysate or membranes; conditions: NADPH; product daphnetin 7-methyl ether
# COc1ccc2oc(=O)ccc2c1 = assay: cells, lysate or membranes; conditions: NADPH; product scopoletin (P04)
# CYP71AZ4 = CYP71AZ4 (Pastinaca sativa, UniProt A0A2Z5D854); conditions: read-out: Apparent affinity (μM) / CYP71AZ4; NADPH; product xanthotoxol
# [1] = substrate: O=c1ccc2cc(O)c(O)cc2o1; assay: cells, lysate or membranes; conditions: NADPH; product 6,7,8-trihydroxycoumarin
# CYP71AZ4, sequence (A0A2Z5D854 whole entry): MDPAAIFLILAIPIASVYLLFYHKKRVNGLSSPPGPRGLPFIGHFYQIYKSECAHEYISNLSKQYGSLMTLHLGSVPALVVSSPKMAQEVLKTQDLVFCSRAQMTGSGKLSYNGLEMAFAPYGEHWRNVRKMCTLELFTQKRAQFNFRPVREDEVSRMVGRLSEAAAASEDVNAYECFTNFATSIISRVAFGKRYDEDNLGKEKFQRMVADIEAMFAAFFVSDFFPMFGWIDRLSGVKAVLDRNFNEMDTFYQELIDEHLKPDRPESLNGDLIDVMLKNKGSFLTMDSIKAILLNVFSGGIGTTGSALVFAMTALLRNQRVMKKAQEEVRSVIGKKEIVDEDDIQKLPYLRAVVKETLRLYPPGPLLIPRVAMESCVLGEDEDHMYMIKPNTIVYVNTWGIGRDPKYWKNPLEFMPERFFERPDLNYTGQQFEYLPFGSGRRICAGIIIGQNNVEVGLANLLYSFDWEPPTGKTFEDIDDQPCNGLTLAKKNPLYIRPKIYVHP
molecule,measurement,setting,value
CYP71AZ4 (Pastinaca sativa),Km,COc1ccc2cc(C)c(=O)oc2c1,159.9 ± 41.1 µM
same,Km,COc1cc2ccc(=O)oc2cc1O,762.2 ± 586.4 µM
same,Km,COc1ccc2ccc(=O)oc2c1,72.5 ± 15.2 µM
same,Km,COc1ccc2oc(=O)ccc2c1,9.5 ± 1.5 µM
O=c1ccc2cc3ccoc3cc2o1 [psoralen],Km,CYP71AZ4,11.3 ± 2.2 µM
B1,Km,[1],248.6 ± 51.9 µM
